{"source": "patent US9289381B2", "about": "“Stabilization and storage of biological pharmaceutical compositions” (The University of North Carolina at Charlotte, priority 2009, dated 2016)", "key": {"[1]": {"system": "micrococcus lysodeikticus", "assay": "Micrococcus lysodeikticus turbidimetric assay of HEWL enzyme activity", "format": "biochemical", "conditions": "formulated in NaOAc compared with 80% w/w CDHP, 10 and 100 mg/ml, 5 months"}, "[2]": {"conditions": "350 mg/ml vs 1 mg/ml, aqueous solvent; cited from earlier work"}, "[3]": {"assay": "Microcalorimetry (DSC) of HEWL dispersions stored in 80% w/w CDHP or 0.1M NaOAc", "format": "physicochemical", "design": "Thermal transition midpoint temperature of HEWL: unit not given here", "protocol": "The samples were formulated in 2 ml silanized glass vials to reduce protein-surface interactions, covered with cap and septa, wrapped with parafilm to ensure no drying out of the sample, and stored away from sunlight. They were stirred for at least 24 hours until a homogeneous distribution of protein was obtained. […] The 35 silanized vials were exposed to UV light for 24 hours to ensure sterility. Control samples at equivalent concentrations were also prepared in triplicates in 0.1M NaOAc buffer (pH 4). Samples were tested for thermal stability via microcalorimetry and functional activity via the micrococcus lysodeikticus assay at monthly intervals.\nA MicroCal VP-DSC microcalorimeter was used to assess thermal structural stability of all samples. Baseline repeatability was established with a minimum of 5 buffer-buffer scans. […] HEWL solutions were tested similarly with no dilution of the samples. Between samples, during the filling period of 15° C. to 25° C., the sample cell of the DSC was flushed with at least 25 ml distilled H2O, then at least 15 ml NaOAc to ensure no sample residue remained behind. Thermal profiles, enthalpy changes, and transition temperatures were obtained with Origin software.\nAll formulations were diluted to 0.1-0.5 mg/ml for testing. This allows one to observe how well protein thermal stability and structural integrity is maintained following storage and then dilution into a solution of similar composition as the environment of the body."}, "[4]": {"conditions": "stored at 10 mg/ml in Choline dhp, 1 month"}, "[5]": {"conditions": "stored at 10 mg/ml in Choline dhp, 2 months"}, "[6]": {"conditions": "stored at 10 mg/ml in Choline dhp, 3 months"}, "[7]": {"conditions": "stored at 10 mg/ml in Choline dhp, 4 months"}, "[8]": {"conditions": "stored at 10 mg/ml in Choline dhp, 5 months"}, "[9]": {"conditions": "stored at 100 mg/ml in Choline dhp, 0 months"}, "[10]": {"conditions": "stored at 100 mg/ml in Choline dhp, 1 month"}}, "note": "Values joined by “and” are separate entries in the source; they are usually repeats but may differ in a detail not shown here. Equal values may be shown once.", "data": [{"substance": "HEWL: hen egg white lysozyme (HEWL), a well characterized protein, purchased from Worthington Biochem", "values": [{"measurement": "enzyme activity over time", "setting": "[1]", "value": "degrades faster"}, {"measurement": "decrease of thermal transition midpoint temperature at the higher concentration", "setting": "[2]", "value": "~5", "unit": "°C"}, {"measurement": "enthalpic change during unfolding at 1 month, % of the maximum (average)", "setting": "[3]; 10 mg/ml HEWL control formulation (0.1M NaOAc)", "value": 64, "unit": "%"}, {"measurement": "enthalpic change during unfolding at 1 month, % of the maximum (average)", "setting": "[3]; 10 mg/ml HEWL in 80% w/w CDHP", "value": 87, "unit": "%"}, {"measurement": "enthalpic change during unfolding at 1 month, % of the maximum (average)", "setting": "[3]; 100 mg/ml HEWL control formulation (0.1M NaOAc)", "value": 60, "unit": "%"}, {"measurement": "enthalpic change during unfolding at 1 month, % of the maximum (average)", "setting": "[3]; 100 mg/ml HEWL in 80% w/w CDHP", "value": 85, "unit": "%"}, {"measurement": "shelf-life (fraction of folded protein, Cp signal)", "setting": "[3]; 80% CDHP wt/wt vs 0.1M sodium acetate pH 4.0, 1-3 months at room temperature", "value": "superior shelf-life"}, {"measurement": "drop of Tm over 5 months", "setting": "[3]; HEWL control formulations (0.1M NaOAc)", "value": "between one and two degrees"}, {"measurement": "drop of Tm over 5 months", "setting": "[3]; HEWL formulated in 80% w/w CDHP", "value": "less than a degree"}, {"measurement": "Enthalpy of unfolding of HEWL", "setting": "[3]; stored at 10 mg/ml in 0.1M NaOAc, 0 months", "value": "99.49 kcal/mol and 102.53 kcal/mol and 105.48 kcal/mol"}, {"measurement": "Enthalpy of unfolding of HEWL", "setting": "[3]; stored at 10 mg/ml in 0.1M NaOAc, 1 month", "value": "71.64 kcal/mol and 67.32 kcal/mol and 58.77 kcal/mol"}, {"measurement": "Enthalpy of unfolding of HEWL", "setting": "[3]; stored at 10 mg/ml in 0.1M NaOAc, 2 months", "value": "53.856 kcal/mol and 52.812 kcal/mol and 56.88 kcal/mol"}, {"measurement": "Enthalpy of unfolding of HEWL", "setting": "[3]; stored at 10 mg/ml in 0.1M NaOAc, 3 months", "value": "39.168 kcal/mol and 40.734 kcal/mol and 40.69 kcal/mol"}, {"measurement": "Enthalpy of unfolding of HEWL", "setting": "[3]; stored at 10 mg/ml in 0.1M NaOAc, 4 months", "value": "24.8706 kcal/mol and 36.9316 kcal/mol and 26.9568 kcal/mol"}, {"measurement": "Enthalpy of unfolding of HEWL", "setting": "[3]; stored at 10 mg/ml in 0.1M NaOAc, 5 months", "value": "18.4 kcal/mol and 20.9 kcal/mol and 22.4 kcal/mol"}, {"measurement": "Enthalpy of unfolding of HEWL", "setting": "[3]; stored at 10 mg/ml in Choline dhp (80% w/w CDHP), 0 months", "value": "102 kcal/mol and 101.7 kcal/mol and 108.3 kcal/mol"}, {"measurement": "Thermal transition midpoint temperature of HEWL", "setting": "[3]; stored at 10 mg/ml in Choline dhp, 0 months", "value": "346.71 and 346.74"}, {"measurement": "Enthalpy of unfolding of HEWL", "setting": "[3]; [4]", "value": "90.932 kcal/mol and 90.855 kcal/mol and 89.61 kcal/mol"}, {"measurement": "Thermal transition midpoint temperature of HEWL", "setting": "[3]; [4]", "value": "346.7 and 346.62 and 346.75"}, {"measurement": "Enthalpy of unfolding of HEWL", "setting": "[3]; [5]", "value": "80.771 kcal/mol and 79.236 kcal/mol and 79.113 kcal/mol"}, {"measurement": "Thermal transition midpoint temperature of HEWL", "setting": "[3]; [5]", "value": "346.84 and 346.81 and 346.39"}, {"measurement": "Enthalpy of unfolding of HEWL", "setting": "[3]; [6]", "value": "56.64 kcal/mol and 55.227 kcal/mol and 63.418 kcal/mol"}, {"measurement": "Thermal transition midpoint temperature of HEWL", "setting": "[3]; [6]", "value": "346.98 and 346.52 and 346.35"}, {"measurement": "Enthalpy of unfolding of HEWL", "setting": "[3]; [7]", "value": "46.7208 kcal/mol and 47.358 kcal/mol and 51.147 kcal/mol"}, {"measurement": "Thermal transition midpoint temperature of HEWL", "setting": "[3]; [7]", "value": "346.47 and 346.43 and 346.5"}, {"measurement": "Enthalpy of unfolding of HEWL", "setting": "[3]; [8]", "value": "36.9 kcal/mol and 43 kcal/mol"}, {"measurement": "Thermal transition midpoint temperature of HEWL", "setting": "[3]; [8]", "value": "346.27 and 346.37 and 346.21"}, {"measurement": "Thermal transition midpoint temperature of HEWL", "setting": "[3]; stored at 10 mg/ml in NaOAc, 0 months", "value": "346.68 and 346.77 and 347.14"}, {"measurement": "Thermal transition midpoint temperature of HEWL", "setting": "[3]; stored at 10 mg/ml in NaOAc, 1 month", "value": "345.79 and 345.93 and 345.94"}, {"measurement": "Thermal transition midpoint temperature of HEWL", "setting": "[3]; stored at 10 mg/ml in NaOAc, 2 months", "value": "345.85 and 345.9 and 345.8"}, {"measurement": "Thermal transition midpoint temperature of HEWL", "setting": "[3]; stored at 10 mg/ml in NaOAc, 3 months", "value": "345.72 and 345.9 and 345.48"}, {"measurement": "Thermal transition midpoint temperature of HEWL", "setting": "[3]; stored at 10 mg/ml in NaOAc, 4 months", "value": "345.17 and 345.1 and 345.21"}, {"measurement": "Thermal transition midpoint temperature of HEWL", "setting": "[3]; stored at 10 mg/ml in NaOAc, 5 months", "value": "345.13 and 345.05 and 345.15"}, {"measurement": "Enthalpy of unfolding of HEWL", "setting": "[3]; stored at 100 mg/ml in 0.1M NaOAc, 0 months", "value": "101.14 kcal/mol and 105.2 kcal/mol and 108.2 kcal/mol"}, {"measurement": "Enthalpy of unfolding of HEWL", "setting": "[3]; stored at 100 mg/ml in 0.1M NaOAc, 1 month", "value": "62.01 kcal/mol and 56.61 kcal/mol and 71.973 kcal/mol"}, {"measurement": "Enthalpy of unfolding of HEWL", "setting": "[3]; stored at 100 mg/ml in 0.1M NaOAc, 2 months", "value": "58.311 kcal/mol and 60.858 kcal/mol and 54.729 kcal/mol"}, {"measurement": "Enthalpy of unfolding of HEWL", "setting": "[3]; stored at 100 mg/ml in 0.1M NaOAc, 3 months", "value": "46.606 kcal/mol and 46.506 kcal/mol and 46.224 kcal/mol"}, {"measurement": "Enthalpy of unfolding of HEWL", "setting": "[3]; stored at 100 mg/ml in 0.1M NaOAc, 4 months", "value": "30.8889 kcal/mol and 32.07177 kcal/mol and 29.8026 kcal/mol"}, {"measurement": "Enthalpy of unfolding of HEWL", "setting": "[3]; stored at 100 mg/ml in 0.1M NaOAc, 5 months", "value": "26.8 kcal/mol and 29.1 kcal/mol and 23.9 kcal/mol"}, {"measurement": "Enthalpy of unfolding of HEWL", "setting": "[3]; [9]", "value": "107.1 kcal/mol and 100.7 kcal/mol and 108.3 kcal/mol"}, {"measurement": "Thermal transition midpoint temperature of HEWL", "setting": "[3]; [9]", "value": "347.45 and 347.05 and 347.11"}, {"measurement": "Enthalpy of unfolding of HEWL", "setting": "[3]; [10]", "value": "89.97 kcal/mol and 89.606 kcal/mol and 87.876 kcal/mol"}, {"measurement": "Thermal transition midpoint temperature of HEWL", "setting": "[3]; [10]", "value": "346.41 and 346.54 and 346.44"}]}]}
